Assay: label from the status in PepcDB records

Sequence	protein production
MSRGPLDPRAPLYKAVQIARRRAAEEGDSSWRVVAQAVEELARRVERLYELASRHGLSKPFWLSPRVLEVLRSVEDGDKGGAIERARSLSESLIPAGLAGEYSLATGTAARVLASIIFLASAAYIGVEGIQAPSTPAAVTTLALASFALAALLAASTHYSLYLLAVSTGASLAIATAYRPVVDSYSILMALYSAVLGFAAAAYSSYTRRKFYRMLRMLERGM	failed
MSRIGKLLLGIVNLGPIGFMAVAVYRHGDLPASAVAVQVAVVAVLLGIYLRHLAGNDQLTRGLRRGWALVLLAGNWAVFPVYWHQFVWQDPRER	failed
MSRINKFVLTVSLLIFIMISAVACGIYTQMVKERVYSLKQSVIDTAFAVANIAEYRRSVAIDLINTLNPTEEQLLVGLRTAYADSVSPSYLYDVGPYLISSDECIQVKEFEKNYCADIMQVVKYRHVKNTGFISFDGKTFVYYLYPVTHNRSLIFLLGLERFSLLSKSLAMDSENLMFSLFKNGKPVTGDEYNAKNAIFTVSEAMEHFAYLPTGLYVFAYKKDVYLRVCTLIIFFAALVAVISGASCLYLVRRVINRGIVEKEAIINNHFERVLDGGLFFSAADVKKLYSMYNSAFLDDLTKAMGRKSFDEDLKALPEKGGYLCLFDVDKFKNINDTFGHLLGDEVLMKVVKILKSQIPVDKGKVYRFGGDEFAVIYTGGTLEELLSILKEIVHFQVGSINLSTSIGVAHSNECPTVERLKMLADERLYKSKKNGRAQISWQ	failed
MSRKTMNPTTVTQQLQKTYQAVGDGLLSEAFGLVRASVPSQQSHFLTRIDDLENVYRQLLSYFAQGVKDEKQAEMLLYLKRKLIGLAAEVHRESVVAQGTGLFYDRLRYRRSIGFESLVTLLEQAETSTVRKQFDELVRLIFDSLWTADALTDEEAAALSHAGEYIRLVAASALTMALQQQWHSKKLYFLLEELARPDITADYRARLLVGVVLTLRSYPHHTRLYYNEIALRLEAVNEHIPLEPTLEMLSIRFLFACETESITKHLQTELFSDIQKIAPDLRKFGMGDTESIQETGNPEWMEELEKSGLGDKIREFSELQLEGADVMHSSFMNLKGSSFFREMHNWFLPFDAAHSRIAPLLEENAVLKQLVEAIGPQLCNSDRYSFIVSMESLPAALRGSAMGAVGGELDALKEQIKQDVPVGETGKLDTAIKSYLQDLYRFYKVCERKNEFDDIFLSPIPPDLPVLDRYLYKRDTLLHTAEFLFRRKHYDRAAKLLADLAEGKESATDTTLHQKLGFSLQQQGLFAQALAAYSRAELIDTENEWLLKRMAHCYRQLCRPAEAAEIYERLFERNPHEATLLLQRGNALVEDSRYDEALQCFFRYEFSVDDASKARRPIAWCLFLTGQYERAGDYYRTILESDDLSTFTDRLNAGHTSLAMGQIPVAIDHYLAGLKLTPNGKDEFLAAYTADIPVLLKAGIEDAVIRLIPEVLRLHPN	failed
MSRKYLIRITELERLLSEQAEALRQKDQQLSLVEETEAFLRSALARAEEKIEEEEREIEHLRAQIEKLRRMLFGTRSEKLQREVEQAEAQLKQREQESDRYSGREDDPQVPRQLRQSRHRRPLPAHLPREIHRLEPEESCCPECGSELDYLGEVSAEQLELVSSALKVIRTVRVKKACTKCDCIVEAPAPSRPIERGIAGSGLLARVLTGKYCEHLPLYRQSEIFARQGIELSRALLSNWVDACCQLMTLLNDTLYRYVMNTRKVHTDDTPVKVLAPGRKKAKTGRIWTYVRDDRNAGSSEPPAVWFAYSPDRQGKHPVQHLRPFRGILQADAFSGYDRLFSAEREGGALTEVACWAHARRKIHDVYISSKSATAEEALKRISELYAIEDEIRGLPESERLAVRQQRSKVLLTSLHEWMVEKNGTLSKKSRLGEACSYVLNQWDALCYYSDDGLAEADNNAAERALRAVCLGKKNFMFFGSDHGGERGALLYGLIGTCRLNGIDPEAYLRHILSVLPEWPSNRVDELLPWNVVLTNK	failed
MSRLEGKIAIVTGASSGIGRAAAALCTRGGKGRRYRPQRECTCGAYTRSPEGAVRRQRLPATWATKPCEALVELAVRRFGGLDTAFNNAGARCDGRDLVARRRLARDARYQSDAPSWRRNIRFRQLRHWAAVRSPTSSFVGHTAGFAGVAPYAASKAGDRTGAGAGGRTRRARHSRERAAAAAPTRLPISRTCRERRPRRAVSEGLHALKRIARPEEIAEAALYLAGRCLRDRRCAAGRRRRFGDEGV	not failed
MSRNPEVLWAQRSDKVYLTVALPDAKDISVKCEPQGLFSFSALGAQGERFEFSLELYGKIMTEYRKNVGLRNIIFSIQKEERSWWTRLLKSEEKPAPYIKVDWNKWCDEDEEVNSETASDDESAFVNQDSESSDDDGLLYLPDLEKARNK	not failed

From a protein production outcome set (Wang et al. 2014)
